Target: apo-CA-HNifU (N-terminal His-tagged NifU with cysteines 35, 62, 106, 272 and 275 mutated to alanine, core cluster removed) (A. vinelandii) (UniProt P05340)
Sequence of UniProt P05340 (P05340 other isoform, or with tags, fused parts or gaps, change not shown): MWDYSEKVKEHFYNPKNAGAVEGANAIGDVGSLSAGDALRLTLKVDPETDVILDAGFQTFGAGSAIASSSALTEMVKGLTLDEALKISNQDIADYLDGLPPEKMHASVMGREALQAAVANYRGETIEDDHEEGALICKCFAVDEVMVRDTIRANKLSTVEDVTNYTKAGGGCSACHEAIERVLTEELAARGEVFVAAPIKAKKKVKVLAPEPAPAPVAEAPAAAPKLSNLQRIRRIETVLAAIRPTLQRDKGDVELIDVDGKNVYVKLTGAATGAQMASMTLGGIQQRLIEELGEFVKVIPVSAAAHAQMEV

What does the source list for “C-terminal Strep-tagged A. vinelandii GrxD (GrxDS) (natural protein)”?
iron transferred from GrxDS to EDTA-treated CA-HNifU (iron in the flowthrough NifU after incubation and separation in a Strep-column): 1 iron; iron transferred from GrxDS to urea-treated apo-CA-HNifU (iron in the flowthrough NifU after incubation and separation in a Strep-column): 1.8 irons

From article PMC13382767
